Test results taken from patent US20210213134A1, “THIOL-BASED MULTIVALENT DRUG DELIVERY COMPOSITIONS” (ORPRO THERAPEUTICS, INC., priority 2018, published 2021).
Where a chain is given by its changes, count along the chain named. “Also recorded” adds a separate entry of the source.

B1: C35STRX: monocysteinic active site Cys32-Ser35 variant of human thioredoxin-1, mucus-targeting scaffold (protein)
chain: MVKQIESKTAFQEALDAAGDKLVVVDFSATWCGPSKMIKPFFHSLSEKYSNVIFLEVDVDDCQDVASECEVKCMPTFQFFKKGQKVGEFSGANKEKLEATINELV
B2: Oxidized (inactive) C35STRX: oxidized, inactive form of C35STRX used as control (protein)
chain: B1 chain
B3: TRX: endogenously secreted human epithelial protein thioredoxin-1, small (12 kDa) redox enzyme (protein)
chain: B1 chain with S35C
B4: biotinylated C35STRX (conjugate)
chain: B1 chain
B5: Azido-C35STRX (conjugate, UniProt P10599 2-105, looked up, variant C35S)
Thioredoxin: VKQIESKTAFQEALDAAGDKLVVVDFSATWCGPSKMIKPFFHSLSEKYSNVIFLEVDVDDCQDVASECEVKCMPTFQFFKKGQKVGEFSGANKEKLEATINELV
modifications: azido group

What was measured:
[1] = DTNB assay (percent reduction state, free sulfhydryl); assay type: physicochemical; details: Table 1
Protocol: C35STRX-antibiotic conjugates are dissolved in PBS to the original volume before lyophilization and assayed for stability over seven days in comparison to non-conjugated reduced C35STRX. C35STRX-antibiotic conjugate concentration is measured by BCA protein assay (Pierce). […] Degradation/aggregation of C35STRX-antibiotic conjugates is determined by the percentage of C35STRX-antibiotic conjugate monomers assayed by SEC using an Agilent 1100 HPLC system and a BioBasic SEC-300 250×4.6 column (ThermoScientific) with a 40 mM Na acetate, 450 mM Na chloride 2 mM EDTA (pH 5.5) buffer at a flow rate 0.350 mL/min and detection by absorbance at 280 nm (A280).
Codon-optimized synthetic oligonucleotides encoding Lys to Ala mutants of C35STRX cloned into vector pD861 (Atum, Newark, Calif.) are expressed solubly in BL21 ΔrhaB E. coli under rhamnose induction (0.1% w/v, 26 deg C.) in APF-LB medium with 0.05% w/v glucose substrate at an O.D.600 of 0.8 in 2.8 L Fernbach shake flasks at NRC (Montreal Canada). Following cell pellet lysis (EmulsiFlex-C3, Avestin, Ottawa Canada) protein is purified from clarified extracts using anion exchange chromatography (FPLC, Akta) and 5 kDa ultrafiltration/diafiltration (UF/DF). […] Physical characterization: C35S(KA)TRX concentration is measured by BCA Protein assay (Pierce).

[2] = molecular target: T1, insulin disulfides (heterodimeric insulin) (Homo sapiens, UniProt P01308); test: single-turnover insulin protein disulfide reduction assay (RP-HPLC of insulin heterodimer peak); assay type: biochemical; design: % reduction: concentration or dose not given beside the values; details: for % reduction / insulin heterodimer peak (RP-HPLC): pH 8
T1 construct: fully disulfide-bonded heterodimeric insulin
Protocol: Left side of FIG. 1—polyacrylamide gel electrophoresis of native human thioredoxin-1 (TRX). Lane 1: Molecular weight standards; Lane 2: Oxidized TRX; Lane 3: Oxidized TRX following reaction with dithiothreitol (DTT); Lane 4: Oxidized TRX following reaction with reduced glutathione (GSH); Lane 5: Oxidized TRX following reaction with GSH followed by DTT. Right side of FIG. 1—TRX was oxidized by exposure to ambient air for one week then incubated with either DTT or GSH at pH 8 for 1 hour followed by purification over a size exclusion column to remove unreacted free DTT or GSH after which the TRX was collected and used in a single-turnover insulin protein-disulfide reduction assay. Oxidized TRX (bottom line), TRX reduced with DTT (top line) or TRX reduced with GSH (middle line) were incubated with fully disulfide-bonded heterodimeric insulin at pH 8. After 30 min, 60 min and 120 minutes aliquots were taken and diluted with 0.1% TFA and 17 uM (final) iodoacetic acid and analyzed over RP-HPLC. Absorbance was monitored at 214 nm and the peak area of the insulin heterodimer fraction was determined at each time point to quantify TRX protein disulfide-reducing activity.
C35STRX was oxidized and Lys residues were conjugated to an azido-PEG linker. The conjugated material was then reduced and tested for molecular weight using SDS-PAGE (FIG. 5D) and MALDI-TOF (FIG. 5E) and activity assessed using a single-turnover insulin protein disulfide reduction assay. From the gel and MALDI-TOF results there is no free C35STRX; however, the conjugated material retained about 33% of its activity in the insulin assay as compared to unreacted reduced C35STRX. See FIGS. 5A-5E and their descriptions above.
Insulin Activity Assay with C35STRX and Azido-C35STRX: C35STRX OD280 was 11.8, corresponding to a concentration of 1.69 mM. C35STRX a OD280 was 15, corresponding to a concentration of 2.14 mM. Azido-C35STRX OD280 was 4.0, corresponding to a concentration of 0.57 mM. pH 8 Insulin stock: […] of Tris pH8 and 572 µL H2O and 25 µL of insulin (10 mg/mL) and 10 µL of 0.5 M EDTA. C35STRX stock was 0.5 mM. Azido-C35STRX stock was 0.5 mM concentration.
The reaction was stopped by addition of 10 µL of 1 M iodoacetic acid and 400 µL of 0.1% TFA. Samples were analyzed by RP-HPLC for changes in the insulin heterodimer peak.

[3] = system: extracellular airway mucus; test: immunohistochemical detection of thioredoxin after IT delivery to rat airways; assay type: in vivo; details: intratracheal (IT) delivery, IHC
Excerpt: FIG. 4 Immunohistochemical detection of thioredoxin following IT delivery to rat airways via Penn-Century micro-sprayer. […] Animals were sacrificed 4 hr post-dose and excised lungs fixed, sectioned and analyzed by IHC for immunodetection of thioredoxin.
Conversion of the thioredoxin active site to a monothiol allows thioredoxin homologue protein to remain covalently attached to targeted disulfides once it has reacted. […] Reduced thioredoxin homologue protein can remain bound to extracellular airway mucus for at least 4 hours following intratracheal (IT) delivery to normal rats with normal mucus as visualized by immunohistochemical detection (brown staining; FIG. 4, Top) using anti-human thioredoxin antisera. […] While time points later than 4 hours were not included in this study, normalization of mucociliary transport in human airway mucus on epithelia for up to 24 hours is observed confirming similar residence time/mucin binding duration for mucoadhesive conjugates.
Conversion of the thioredoxin active site to a reduced Cys32 monothiol allows thioredoxin variants to remain covalently attached to targeted disulfides once reacted. […]

[4] = system: human airway mucus on epithelia; test: normalization of mucociliary transport in human airway mucus on epithelia; assay type: cell-based
[5] = system: rat; details: in vivo
[6] = system: mice; details: mouse, in vivo
[7] = system: human primary bronchial epithelia from CF and normal donors; assay type: cell-based
[8] = system: rats; test: acute aerosol toxicity (nebulizer); assay type: in vivo
[9] = system: target proteins; test: disulfide linkage to target proteins in vitro by HPLC and gel-shift; assay type: binding
[10] = literature values; cited from earlier work
[11] = system: porcine gastric mucin; test: mucin binding direct ELISA; details: reduced biotinylated conjugate, various mucin concentrations
Protocol: To establish the feasibility of covalently binding conjugated monocysteinic active site Cys32-Ser35 thioredoxin (C35STRX) to mucins, conjugation of C35STRX via its N-terminal NH2 to a model payload (biotin) using EZ-Link™ Sulfo-NHS-SS-Biotin (ThermoFisher) was carried out. Dithiothreitol (DTT, 0.1 M) was used to generate active C35STRX conjugates by reduction of the C35STRX active site Cys. Following DTT removal (NAPS column, GE Healthcare), the mucin binding ability of reduced biotinylated 0.02 C35STRX was evaluated by direct ELISA using 96 well plates 0 (Costar 3370) coated with 100 μl of various concentrations of porcine gastric mucin (Sigma) in 100 mM Tris-HCl buffer (pH 9). 100 μL of biotinylated C35STRX in 50 mM Tris (pH 8) and 1 mM EDTA was then added and incubated for 2 hours, with washes performed between each step. 50 μL of avidin-horseradish peroxidase (HRP) was added and incubated for 30 min followed by 50 μL of tetramethylbenzidine (TMB) substrate. Reactions were stopped after 5 min with 100 μl 1N sulfuric acid. Absorbance at […] (Molecular Devices SpectraMax i3) was plotted against mucin concentration.

T1 sequence (P01308 25-54 limits assumed): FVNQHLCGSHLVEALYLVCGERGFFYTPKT
T1 sequence (P01308 90-110 limits assumed): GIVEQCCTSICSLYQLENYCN

Row | Molecule | % reduced [1] [%] | % reduction ([2]; Table 3, 0 min) [%] | insulin heterodimer peak (RP-HPLC) ([2]; Table 3, 0 min) | % reduction ([2]; Table 3, 90 min) [%] | insulin heterodimer peak (RP-HPLC) ([2]; Table 3, 90 min) | % reduction ([2]; Table 4, 0 min) [%] | insulin heterodimer peak (RP-HPLC) ([2]; Table 4, 0 min) | % reduction ([2]; Table 4, 90 min) [%] | insulin heterodimer peak (RP-HPLC) ([2]; Table 4, 90 min) | other results
1 | B1 | 109.4 | 0 | 8515.4 | 99.40 | 50.2 | 0 | 10602 | 97.70 | 243.2 | time remaining bound to extracellular airway mucus ([3]; normal rats): at least 4 hours; duration of normalization of mucociliary transport [4]: up to 24 hours; adverse inflammatory effects in lavage fluid [5]: No adverse inflammatory effects; adverse inflammatory effects in lavage fluid [6]: No adverse inflammatory effects; adverse inflammatory effects in vitro [7]: No adverse inflammatory effects; toxic effects in normal animals treated by aerosol ([8]; normal animals, aerosol, high dose levels): lack of observed toxic effects; local or systemic toxicity, histopathology ([8]; rats dosed acutely, aerosol via nebulizer, highest delivered concentration 40 mg/kg): No local or systemic toxicity or histopathological anomalies; disulfide linkage to target proteins [9]: stable disulfide linkages to target proteins
2 | B2 | – | – | – | – | – | – | – | – | – | binding to mucus or the epithelial surface ([3]; rats, 4 hr post-dose): did not bind mucus or the epithelial surface
3 | B3 | – | – | – | – | – | – | – | – | – | pKa of catalytic Cys thiol [10]: 6.2
4 | B4 | – | – | – | – | – | – | – | – | – | mucin binding [11]: bind mucin in a dose-dependent fashion; also recorded: maintained full mucin binding activity with linear kinetics
5 | B5 | 106.6 | 0 | 8959.8 | 32.69 | 6030.6 | 0 | 10213 | 33.07 | 6835 | activity retained in the insulin assay as compared to unreacted reduced C35STRX ([2]; up to 11 azido-PEG linkers on Lys): about 33%
